B1: CPEB3 Ribozyme (parent)
chain: UAACAGGGGGCCACAGCAGAAGCGUUCACGUCGCAGCCCCUGUCAGAUUCUGGUGAAUCUGCGAAUUCUGCUGUAUAUCUC

Variants of B1 are the subject of the data set. Nature of the data set: self-cleavage, relative activity (ratio to wild type); higher = more cleavage; in vitro, sequencing. The essentials: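 After error-prone PCR and barcoding, CPEB3 ribozyme mutant libraries were transcribed with T7 RNA polymerase at 37°C for 5 hours, then given 15 min with DNase I before an EDTA stop, and they cleaved during both steps. Reverse transcription with template switching preceded Illumina sequencing. Relative activity divides a variant's cleaved/total read fraction by the unmutated ribozyme's. At least 5 reads were required per variant, and three batches were averaged.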
Consider A13G U51G, for which the self-cleavage worked out at 0.84. In the case of A13G U51C it was 0.85. Turning to A13G U51A, the self-cleavage turned out to be 0.91.

Consider A13U U25A, for which the self-cleavage was found to be 0.26. In the case of A13U U25C it was 0.28; in that of C14G C40G, 0.1. C14A G24C: the self-cleavage was determined as 0.15.

A13U G30U: the self-cleavage amounted to 0.11. Regarding A13U G30A, the self-cleavage was 0.24. On to A13G U78C, for which the self-cleavage worked out at 0.94. As to A13G U78A, the self-cleavage was 1.01. For A13U C40U, the self-cleavage came to 1.25. For C14G A21U, the self-cleavage worked out at 0.16. Next, C14G A21G: 0.45; A13G G16A: 0.24. On to C14G A65C, for which the self-cleavage amounted to 0.32. Take C14G A65U: the self-cleavage came to 0.26. On to A13U C23U, for which the self-cleavage worked out at 0.15. In the case of A13U C23G, the self-cleavage stood at 0.17.

For the variant A13U C23A, the self-cleavage is 0.33. Take A13U A18C: the self-cleavage was 0.42. Consider A13U A18U, for which the self-cleavage is 0.38. Regarding A13U A18G, the self-cleavage stood at 0.87.

For the variant C14A G70U, the self-cleavage was 0.22.

With A13U G19A, the self-cleavage was found to be 0.17. With A13G U41G, the self-cleavage came out at 0.37. As for A13G U41C, the self-cleavage amounted to 0.79. Take A13G U41A: the self-cleavage was found to be 0.27.

C14A A35U: the self-cleavage was found to be 0.4.

Regarding C14A A35G, the self-cleavage was 1.26.

As to C14A U26C, the self-cleavage came to 0.63.

Turning to A13U U31A, the self-cleavage stood at 0.61.

Regarding A13U U31C, the self-cleavage is 1.01. On to A13U U31G, for which the self-cleavage stood at 0.66. With A13U G52A, the self-cleavage was 1.22. As for A13U G52C, the self-cleavage was 1.24. For the variant A13U G33C, the self-cleavage was found to be 0.2. With A13U G33A, the self-cleavage came to 0.21. A13U G33U: the self-cleavage was 0.11.

For A13U G22U, the self-cleavage came out at 0.34. Regarding A13U G22C, the self-cleavage is 0.19. Turning to A13U C68A, the self-cleavage amounted to 0.54.

For A13U C68U, the self-cleavage was determined as 1.21. In the case of A13G U54A it was 1.07; in that of A13G U54G, 0.76.

As for A13G U54C, the self-cleavage was 0.92. On to C14U A57C, for which the self-cleavage turned out to be 0.66. Regarding C14U A57G, the self-cleavage stood at 1.1. In the case of C14U C23G it was 0.12; in that of C14A A56G, 1.1; in that of A13G C59U, 0.8.

With A13G C59G, the self-cleavage turned out to be 0.24. Next, A13U C81U: 1.2; A13U C34U: 0.43. In the case of A13G C68U it was 0.66; in that of C14A U25C, 0.21. On to C14A A28U, for which the self-cleavage turned out to be 0.76.

A13U G24A: the self-cleavage was 0.26. As for A13G G36U, the self-cleavage was 0.2. In the case of A13G G36A, the self-cleavage is 0.35.

For the variant C14A U51A, the self-cleavage came to 1.1. As to C14A U51C, the self-cleavage turned out to be 1.04. Consider A13U U41A, for which the self-cleavage is 0.26. Next, A13U U41C: 1.2; C14A U49C: 0.23; A13U U80A: 1.25. With A13U U80G, the self-cleavage turned out to be 1.27.

Turning to A13U U80C, the self-cleavage was determined as 1.18. For the variant A13U A20U, the self-cleavage came out at 0.54. As to A13U A20G, the self-cleavage amounted to 0.93. As for A13G U76G, the self-cleavage was found to be 1.08. In the case of A13G U76A it was 0.99.

Consider A13G U76C, for which the self-cleavage was determined as 0.94. Next, A13U C79U: 1.31; A13U C79A: 1.28; A13U G55U: 0.83.

On to C14U A47G, for which the self-cleavage was 0.7. For C14U A47U, the self-cleavage turned out to be 1.21.

On to A13U U67C, for which the self-cleavage came out at 0.3.

As to A13U U67A, the self-cleavage is 0.7. For the variant A13U U48C, the self-cleavage stood at 0.77. For the variant A13U U48A, the self-cleavage worked out at 0.56. For the variant C14A U43A, the self-cleavage was found to be 1.24.

Regarding C14A U43C, the self-cleavage stood at 0.83.

As to C14G U72C, the self-cleavage stood at 0.69. In the case of A13G G70A it was 0.26.

For A13G G70C, the self-cleavage turned out to be 0.45. Turning to C14A U54A, the self-cleavage was 1.19. For the variant C14A U54G, the self-cleavage was found to be 1.21. As for C14G U51C, the self-cleavage was determined as 1.16.

As for A13U U54C, the self-cleavage was 1.1. With A13U U54G, the self-cleavage stood at 1.01. As to A13U U54A, the self-cleavage worked out at 1.18. A13U C32U: the self-cleavage was 0.25. Regarding A13U C32G, the self-cleavage came out at 0.45. In the case of A13U C32A, the self-cleavage was 0.2.

Turning to C14U C39A, the self-cleavage was determined as 0.55.

Consider A13G C71A, for which the self-cleavage was found to be 0.25. A13G C71U: the self-cleavage worked out at 0.39.

As for A13G C71G, the self-cleavage was found to be 0.12. Next, A13U C39A: 0.15; A13U C39U: 1.18; A13U C39G: 0.51. In the case of C14G U41C it was 1.14. As for A13G U25A, the self-cleavage worked out at 0.29.

As for A13G U25C, the self-cleavage stood at 0.36.

With C14U A65U, the self-cleavage amounted to 0.34.

As for C14A A18U, the self-cleavage came to 0.49. In the case of A13G G73A, the self-cleavage came to 1.27.

A13G G73C: the self-cleavage came out at 1.12.

For C14A C38G, the self-cleavage came out at 0.19. Consider A13G G33A, for which the self-cleavage turned out to be 0.21.

Take A13G G33U: the self-cleavage worked out at 0.24. Turning to A13G G33C, the self-cleavage stood at 0.17. For the variant C14A G73U, the self-cleavage was determined as 1.26. For A13G U72G, the self-cleavage is 0.46.

Regarding A13G U72A, the self-cleavage came to 0.54.

For the variant A13G U72C, the self-cleavage was determined as 0.8.

For A13G U58C, the self-cleavage worked out at 0.46.

Turning to A13G U58G, the self-cleavage amounted to 0.2.

Take C14G A20U: the self-cleavage worked out at 0.26. As for C14G U48C, the self-cleavage stood at 0.47. With A13U G16U, the self-cleavage turned out to be 0.47. Consider A13U U78C, for which the self-cleavage worked out at 1.23. A13U U78A: the self-cleavage worked out at 1.21. Next, A13U G70A: 0.48. Take A13U G70C: the self-cleavage was 0.21. For the variant A13G C62U, the self-cleavage is 0.23. As to A13G C62A, the self-cleavage turned out to be 0.18.

C14G A15G: the self-cleavage stood at 0.79. C14G A15C: the self-cleavage turned out to be 0.37. As to C14G U66C, the self-cleavage is 0.29. As for C14A U66C, the self-cleavage was 0.4. Take A13U C38U: the self-cleavage amounted to 0.89. As to A13U C38G, the self-cleavage was 0.41. Next, A13U C38A: 0.12; C14A A75U: 1.23; A13U A56U: 0.93. Consider A13U A56G, for which the self-cleavage stood at 1.07. For the variant C14U C17U, the self-cleavage came out at 0.87. Consider A13U U76C, for which the self-cleavage came to 1.17.

For the variant A13U U76A, the self-cleavage came out at 1.11.

On to A13U U60C, for which the self-cleavage is 0.64. As to A13U U60A, the self-cleavage came out at 0.73.

With C14U, the self-cleavage came to 1.15. For the variant C14G, the self-cleavage stood at 1.08. On to C14A, for which the self-cleavage was 1.17.

C14U A18G: the self-cleavage was determined as 0.82. Take C14U A18U: the self-cleavage came to 0.44.

Take A13U U69C: the self-cleavage was 0.71. For the variant A13U U69G, the self-cleavage is 0.85. Turning to A13U U69A, the self-cleavage came out at 0.74.

For A13U, the self-cleavage stood at 1.17. As for A13U A77U, the self-cleavage was 1.22. A13U A77G: the self-cleavage was found to be 1.03.

Take A13U G53A: the self-cleavage was found to be 1.27.

With C14U C38A, the self-cleavage was determined as 0.14.

For the variant A13G C79U, the self-cleavage stood at 1.14. With A13G G24A, the self-cleavage came to 0.27. On to A13G C50U, for which the self-cleavage worked out at 0.91. Take A13U A21U: the self-cleavage came to 0.35. Next, A13U A21G: 0.48. For A13U A21C, the self-cleavage was determined as 0.37. Consider A13U U72G, for which the self-cleavage came out at 0.76.

With A13U U72A, the self-cleavage was determined as 0.77. In the case of A13U U72C, the self-cleavage came out at 0.96.

For the variant A13U A57C, the self-cleavage came out at 0.7.

The values are drawn from the RNAGym collection of RNA variant scans (doi:10.1093/nar/gkz1192).
